Results on three molecules are retold here after article PMC6265457 (Nucleic Acids Research, 2018).

Common to all, as to experiment: pull-down
One experiment deals with T1, FLAG-Spp1 (wild type) (S. cerevisiae, UniProt Q03012 1-353).
T1 sequence: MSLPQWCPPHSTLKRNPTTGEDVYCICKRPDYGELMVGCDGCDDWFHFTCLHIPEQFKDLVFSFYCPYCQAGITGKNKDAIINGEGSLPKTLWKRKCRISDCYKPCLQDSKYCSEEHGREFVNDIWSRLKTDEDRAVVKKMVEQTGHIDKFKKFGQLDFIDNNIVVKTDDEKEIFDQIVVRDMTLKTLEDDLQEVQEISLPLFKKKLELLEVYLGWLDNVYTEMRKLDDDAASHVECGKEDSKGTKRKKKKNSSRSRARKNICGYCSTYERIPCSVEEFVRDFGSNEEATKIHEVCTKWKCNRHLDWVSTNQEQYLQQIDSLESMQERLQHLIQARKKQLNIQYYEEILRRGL

The next experiment deals with T2, FLAG-Swd2 (S. cerevisiae, UniProt P36104 1-329).
T2 sequence: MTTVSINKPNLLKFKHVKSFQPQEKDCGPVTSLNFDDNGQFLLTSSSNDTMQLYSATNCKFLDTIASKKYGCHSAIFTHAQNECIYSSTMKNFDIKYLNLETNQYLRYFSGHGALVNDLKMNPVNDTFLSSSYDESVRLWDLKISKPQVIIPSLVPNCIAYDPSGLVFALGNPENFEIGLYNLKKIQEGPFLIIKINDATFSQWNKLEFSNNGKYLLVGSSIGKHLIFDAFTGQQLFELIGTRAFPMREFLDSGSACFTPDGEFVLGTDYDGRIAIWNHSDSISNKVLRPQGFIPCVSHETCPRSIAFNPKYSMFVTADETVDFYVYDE

A further experiment deals with T3, FLAG-Swd1 (S. cerevisiae, UniProt P39706 1-426).
T3 sequence: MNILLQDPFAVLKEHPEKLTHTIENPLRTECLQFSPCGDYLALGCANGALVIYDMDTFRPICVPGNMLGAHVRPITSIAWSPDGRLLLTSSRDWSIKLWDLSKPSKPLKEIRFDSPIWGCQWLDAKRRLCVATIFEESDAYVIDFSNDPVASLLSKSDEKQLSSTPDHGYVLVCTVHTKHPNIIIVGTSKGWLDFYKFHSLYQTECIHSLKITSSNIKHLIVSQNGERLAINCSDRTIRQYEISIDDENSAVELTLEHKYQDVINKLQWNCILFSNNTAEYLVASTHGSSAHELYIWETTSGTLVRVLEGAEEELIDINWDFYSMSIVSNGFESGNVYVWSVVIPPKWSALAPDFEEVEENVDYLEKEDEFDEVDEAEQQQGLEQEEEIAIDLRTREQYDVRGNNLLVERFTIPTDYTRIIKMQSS

B1: GST-tagged n-SET fragment (Set1 residues 762–937) (domain or fragment)
chain: MDLQNAIKDEEDMLILKQLLSTYTPTVTPETSAALEYKIWQSRRKVLEEEKASDWQIELNGTLFDSELQPGSSFKAEGFRKIADKLKINYLPHRRRVHQPLNTVNIHNERNEYTPELCQREESSNKEPSDSVPQEVSSSRDNRASNRRFQQDIEAQKAAIGTESELLSLNQLNKRK
Turning to B1, the binding result with FLAG-Spp1 (wild type) is “binds”.

B2: GST-tagged Set1 fragment, residues 124–229 (domain or fragment)
chain: TESALLLQQRPPSVLRYNTDNLKSKFHYFDPIKGEFFNKDKMLSWKATDKEFSETGYYVVKELQDGQFKFKIKHRHPEIKASDPRNENGIMTSGKVATHRKCRNSL
Turning to B2, the binding result with FLAG-Swd2 is “binds”.

B3: GST-tagged Set1 fragment, residues 1–123 (domain or fragment)
chain: MSNYYRRAHASSGSYRQPQEQPQYSRSGHYQYSNGHSHQQYSSQYNQRRRYNHNDGTRRRYNDDRPHSSNNASTRQYYATNNSQSGPYVNKKSDISSRRGMSQSRYSNSNVHNTLASSSGSLP
With B3, the binding result in the experiment with FLAG-Swd1 was “binds”.
